US20200283475A1
Blank lines part the entries; values can stand above or below the substance they belong to.

Legend:
[1] = molecular target: human polyclonal IgG (Gammanorm) (human); test: SPR; ratio of remaining capacity to reference Zvar1
[2] = molecular target: IgG1 monoclonal antibody (probe molecule in the Biacore kinetics); test: SPR (Biacore), ligand on CM5 chip, IgG1 mAb as probe
[3] = molecular target: human polyclonal IgG (Gammanorm) (human); test: SPR, ligand on chip; signal left after 96-100 CIP cycles 0.5 M NaOH
[4] = molecular target: IgG1 monoclonal antibody (probe molecule in the Biacore kinetics); test: SPR (Biacore), ligand on CM5 chip, IgG1 mAb as probe; exponent read as 10^-5
[5] = molecular target: human polyclonal IgG (Gammanorm) (human); test: column breakthrough; ratio to reference Zvar4
[6] = molecular target: human polyclonal IgG (Gammanorm) (human); test: column breakthrough, ligand […]; after 24 h 0.5 M NaOH
[7] = molecular target: human polyclonal IgG (Gammanorm) (human); test: column breakthrough, ligand […]; after 24 h 1.0 M NaOH
[8] = molecular target: human polyclonal IgG (Gammanorm) (human); test: column breakthrough, 1.0 M NaOH; ratio to reference Zvar4
[9] = molecular target: human polyclonal IgG (Gammanorm) (human); test: column breakthrough, ligand 7.2 mg/ml; after 24 h 0.5 M NaOH
[10] = molecular target: human polyclonal IgG (Gammanorm) (human); test: column breakthrough, agarose beads, ligand […], 6 min residence
[11] = molecular target: human polyclonal IgG (Gammanorm) (human); test: as above; remark: listed apart in the source
[12] = molecular target: human polyclonal IgG (Gammanorm) (human); test: column breakthrough, agarose beads, ligand 7.2 mg/ml, 6 min residence
[13] = molecular target: human polyclonal IgG (Gammanorm) (human); test: SPR, ligand on chip; CIP cycles 0.5 M NaOH
[14] = molecular target: human polyclonal IgG (Gammanorm) (human); test: SPR; ratio to reference (the text names Zvar6)
[15] = molecular target: human polyclonal IgG (Gammanorm) (human); test: pH 6-3 citrate gradient elution; hexamer SEQ ID NO 33 on agarose; peak 1
[16] = molecular target: human polyclonal IgG (Gammanorm) (human); test: pH 6-3 citrate gradient elution; hexamer SEQ ID NO 33 on agarose; peak 2
[17] = molecular target: human polyclonal IgG (Gammanorm) (human); test: column breakthrough, ligand 9.7 mg/ml; after 24 h 0.5 M NaOH
[18] = molecular target: human polyclonal IgG (Gammanorm) (human); test: column breakthrough, ligand 9.7 mg/ml; after 24 h 1.0 M NaOH
[19] = molecular target: human polyclonal IgG (Gammanorm) (human); test: column breakthrough, agarose beads, ligand 9.7 mg/ml, 6 min residence
[20] = molecular target: human polyclonal IgG (Gammanorm) (human); test: as above; remark: listed apart in the source
[21] = molecular target: human polyclonal IgG (Gammanorm) (human); test: column breakthrough, ligand 10.8 mg/ml; after 24 h 0.5 M NaOH
[22] = molecular target: human polyclonal IgG (Gammanorm) (human); test: column breakthrough, agarose beads, ligand 10.8 mg/ml, 6 min residence

Substance: Zvar(Q9A,N11E,Q40V,A42K,N43A,L44I)4 with an additional N-terminal cysteine (designed binder)
Capacity retention relative to ref. after six 4 h cycles ([5]; ligand content 7.2 mg/ml): 1.5
Remaining IgG capacity Qb10 after six 4 h cycles [6]: 53.6 mg/mL
Remaining IgG capacity after six 4 h cycles (%) [6]: 95%
Remaining IgG capacity Qb10 after six 4 h cycles [7]: 56 mg/mL
Remaining IgG capacity after six 4 h cycles (%) [7]: 93%
Capacity retention relative to ref. after six 4 h cycles [8]: 1.67
Remaining IgG capacity Qb10 after six 4 h cycles [9]: 44.2 mg/mL
Remaining IgG capacity after six 4 h cycles (%) [9]: 90%
Initial IgG capacity Qb10 [10]: 56.3 mg/mL
Initial IgG capacity Qb10 [11]: 60.3 mg/mL
Initial IgG capacity Qb10 [12]: 49 mg/mL

Substance: Zvar(N11K,H18K,S33K,D37E,A42R,N43A,L44I,K50R,L51Y)4 with an additional N-terminal cysteine (designed binder)
Capacity retention relative to ref. after six 4 h cycles [5]: 1.53
Capacity retention relative to ref. after six 4 h cycles [8]: 1.44
Remaining IgG capacity Qb10 after six 4 h cycles [17]: 52 mg/mL
Remaining IgG capacity after six 4 h cycles (%) [17]: 92%
Remaining IgG capacity Qb10 after six 4 h cycles [18]: 48.1 mg/mL
Remaining IgG capacity after six 4 h cycles (%) [18]: 77%
Initial IgG capacity Qb10 [19]: 56.3 mg/mL
Initial IgG capacity Qb10 [20]: 62.1 mg/mL

Substance: Zvar(Q9A,N11K,H18K,D37E,A42R)4 with an additional N-terminal cysteine (designed binder)
Capacity retention relative to ref. after six 4 h cycles [5]: 1.3
Remaining IgG capacity Qb10 after six 4 h cycles [21]: 52.5 mg/mL
Remaining IgG capacity after six 4 h cycles (%) [21]: 92%
Initial IgG capacity Qb10 [22]: 56.9 mg/mL

Results, then the substance that gave them:

Capacity relative to reference [1]: 1.4
Kd [2]: 1.07 nM
kon [2]: 410000 M⁻¹ s⁻¹
Capacity after 96-100 cycles [3]: 66%
koff [4]: 0.000437 s⁻¹
Substance: Zvar(Q9A,N11E,Q40V,A42K,N43A,L44I)1 (designed binder)

Remaining capacity 100 cycles (%) [13]: 87%
Capacity relative to ref. 100 cycles [14]: 1.3
Elution pH [15]: 4.24 pH
Elution pH [16]: 3.81 pH
Substance: Zvar(Q9A,N11E,Q40V,A42K,N43A,L44I)6 (designed binder)
